# Reference: IntAct's records for PubMed 19797078
# B1: Tyrosine-protein phosphatase YVH1 (Saccharomyces cerevisiae), Q02256 (parent)
# chain: MAGNANSVDEEVTRILGGIYLGGIRPIIDHRPLGAEFNITHILSVIKFQVIPEYLIRKGYTLKNIPIDDDDVTDVLQYFDETNRFIDQCLFPNEVEYSPRLVDFKKKPQRGAVFAHCQAGLSRSVTFIVAYLMYRYGLSLSMAMHAVKRKKPSVEPNENFMEQLHLFEKMGGDFVDFDNPAYKQWKLKQSIKLDPSGSELVSNSGMFKDSESSQDLDKLTEAEKSKVTAVRCKKCRTKLALSTSFIAHDPPSKESSEGHFIKRAANSHRIIDIQESQANCSHFFIEPLKWMQPELQGKQELEGKFSCPGCSSKVGGYNWKGSRCSCGKWVIPAIHLQTSKVDQFPLQSTALPNMVNFESEKVNR
# partner: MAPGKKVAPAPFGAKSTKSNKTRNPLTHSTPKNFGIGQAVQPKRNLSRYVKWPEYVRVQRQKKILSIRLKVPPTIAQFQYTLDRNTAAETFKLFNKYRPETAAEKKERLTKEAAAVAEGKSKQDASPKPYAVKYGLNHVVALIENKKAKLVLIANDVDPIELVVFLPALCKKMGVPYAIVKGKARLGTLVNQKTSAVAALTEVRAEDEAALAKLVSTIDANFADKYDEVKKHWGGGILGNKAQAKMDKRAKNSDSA
# B2: Ribosome assembly factor MRT4 (Saccharomyces cerevisiae), P33201 (parent)
# chain: MPRSKRSKLVTLAQTDKKGRENKERIFDEVREALDTYRYVWVLHLDDVRTPVLQEIRTSWAGSKLIMGKRKVLQKALGEKREEEYKENLYQLSKLCSGVTGLLFTDEDVNTVKEYFKSYVRSDYSRPNTKAPLTFTIPEGIVYSRGGQIPAEEDVPMIHSLEPTMRNKFEIPTKIKAGKITIDSPYLVCTEGEKLDVRQALILKQFGIAASEFKVKVSAYYDNDSSTVESTNINME
# partner: B1 partner
# Variants of: B1
# Conditions: with rl8a_yeast RPL8A
row,Variant,effect of a mutation on the interaction
1,MAGNANSVDEEVTRILGGIYLGGIRPIIDHRPLGAEFNITHILSVIKFQVIPEYLIRKGYTLKNIPIDDDDVTDVLQYFDETNRFIDQCLFPNEVEYSPRLVDFKKKPQRGAVFAHSQAGLSRSVTFIVAYLMYRYGLSLSMAMHAVKRKKPSVEPNENFMEQLHLFEKMGGDFVDFDNPAYKQWKLKQSIKLDPSGSELVSNSGMFKDSESSQDLDKLTEAEKSKVTAVRCKKCRTKLALSTSFIAHDPPSKESSEGHFIKRAANSHRIIDIQESQANCSHFFIEPLKWMQPELQGKQELEGKFSCPGCSSKVGGYNWKGSRCSCGKWVIPAIHLQTSKVDQFPLQSTALPNMVNFESEKVNR [C117S],decreasing interaction

# Variants of: B2
# Conditions: with rl8a_yeast RPL8A
row,Variant,effect of a mutation on the interaction
1,MPRSKRSKLVTLAQTDKKGRENKERIFDEVREALDTYRYVWVLHLDDVRTPVLQEIRTSWAGSKLIMDKRKVLQKALGEKREEEYKENLYQLSKLCSGVTGLLFTDEDVNTVKEYFKSYVRSDYSRPNTKAPLTFTIPEGIVYSRGGQIPAEEDVPMIHSLEPTMRNKFEIPTKIKAGKITIDSPYLVCTEGEKLDVRQALILKQFGIAASEFKVKVSAYYDNDSSTVESTNINME [G68D],decreasing interaction
